Results as given in patent publication US20210388087A1 (Chugai, published 2021).
Substitutions are numbered along the chain they refer to.

B1: H183/L072 VL H27dY (antibody, name in Kabat numbering, V domains shown)
VH: QVQLVESGGGLVQPGRSLRLSCAASGFTFSNAWMHWVRQAPGKGLEWVAQIKDKGNAYAAYYAPSVKGRFTISRDDSKNSIYLQMNSLKTEDTAVYYCHYVHYASASTVLPAFGVDAWGQGTTVTVSS
VL: DIVMTQSPLSLPVTPGEPASISCQASQELVYMNRNTYLHWYQQKPGQAPRLLIYKVSNRFPGVPDRFSGSGSGTDFTLKISRVEAEDVGVYYCAQGTSVPFTFGQGTKLEIK
notes: Dual-Ig
B2: H183/L072 VL H34V (antibody, name in Kabat numbering, V domains shown)
VH: B1 VH
VL: B1 VL with Y31H, H39V
notes: Dual-Ig
B3: H183/L072 VL K50F (antibody, name in Kabat numbering, V domains shown)
VH: B1 VH
VL: B1 VL with Y31H, K55F
notes: Dual-Ig
B4: H183/L072 VL L27bM (antibody, name in Kabat numbering, V domains shown)
VH: B1 VH
VL: B1 VL with L29M, Y31H
notes: Dual-Ig
B5: H183/L072 VL L27bS (antibody, name in Kabat numbering, V domains shown)
VH: B1 VH
VL: B1 VL with L29S, Y31H
notes: Dual-Ig
B6: H183/L072 VL L33F (antibody, name in Kabat numbering, V domains shown)
VH: B1 VH
VL: B1 VL with Y31H, L38F
notes: Dual-Ig
B7: H183/L072 VL L33E (antibody, name in Kabat numbering, V domains shown)
VH: B1 VH
VL: B1 VL with Y31H, L38E
notes: Dual-Ig
B8: H183/L072 VL K50W (antibody, name in Kabat numbering, V domains shown)
VH: B1 VH
VL: B1 VL with Y31H, K55W
notes: Dual-Ig
B9: H183/L072 VL K50N (antibody, name in Kabat numbering, V domains shown)
VH: B1 VH
VL: B1 VL with Y31H, K55N
notes: Dual-Ig
B10: H183/L072 VL K50H (antibody, name in Kabat numbering, V domains shown)
VH: B1 VH
VL: B1 VL with Y31H, K55H
notes: Dual-Ig
B11: H183/L072 VL H34M (antibody, name in Kabat numbering, V domains shown)
VH: B1 VH
VL: B1 VL with Y31H, H39M
notes: Dual-Ig
B12: H183/L072 VL H34P (antibody, name in Kabat numbering, V domains shown)
VH: B1 VH
VL: B1 VL with Y31H, H39P
notes: Dual-Ig
B13: H183/L072 VL K50E (antibody, name in Kabat numbering, V domains shown)
VH: B1 VH
VL: B1 VL with Y31H, K55E
notes: Dual-Ig
B14: H183/L072 VL K50I (antibody, name in Kabat numbering, V domains shown)
VH: B1 VH
VL: B1 VL with Y31H, K55I
notes: Dual-Ig
B15: H183/L072 VL K50M (antibody, name in Kabat numbering, V domains shown)
VH: B1 VH
VL: B1 VL with Y31H, K55M
notes: Dual-Ig
B16: H183/L072 VL K50V (antibody, name in Kabat numbering, V domains shown)
VH: B1 VH
VL: B1 VL with Y31H, K55V
notes: Dual-Ig
B17: H183/L072 VL H34I (antibody, name in Kabat numbering, V domains shown)
VH: B1 VH
VL: B1 VL with Y31H, H39I
notes: Dual-Ig
B18: H183/L072 VL K50Q (antibody, name in Kabat numbering, V domains shown)
VH: B1 VH
VL: B1 VL with Y31H, K55Q
notes: Dual-Ig
B19: H183/L072 VL L27bF (antibody, name in Kabat numbering, V domains shown)
VH: B1 VH
VL: B1 VL with L29F, Y31H
notes: Dual-Ig
B20: H183/L072 VL L33I (antibody, name in Kabat numbering, V domains shown)
VH: B1 VH
VL: B1 VL with Y31H, L38I
notes: Dual-Ig
B21: H183/L072 VL K50P (antibody, name in Kabat numbering, V domains shown)
VH: B1 VH
VL: B1 VL with Y31H, K55P
notes: Dual-Ig
B22: H183/L072 VL K50L (antibody, name in Kabat numbering, V domains shown)
VH: B1 VH
VL: B1 VL with Y31H, K55L
notes: Dual-Ig
B23: H183/L072 VL K50D (antibody, name in Kabat numbering, V domains shown)
VH: B1 VH
VL: B1 VL with Y31H, K55D
notes: Dual-Ig
B24: H183/L072 VL L27bA (antibody, name in Kabat numbering, V domains shown)
VH: B1 VH
VL: B1 VL with L29A, Y31H
notes: Dual-Ig
B25: H183/L072 VL K50R (antibody, name in Kabat numbering, V domains shown)
VH: B1 VH
VL: B1 VL with Y31H, K55R
notes: Dual-Ig
B26: H183/L072 VL K50S (antibody, name in Kabat numbering, V domains shown)
VH: B1 VH
VL: B1 VL with Y31H, K55S
notes: Dual-Ig
B27: H183/L072 VL L33H (antibody, name in Kabat numbering, V domains shown)
VH: B1 VH
VL: B1 VL with Y31H, L38H
notes: Dual-Ig
B28: H183/L072 VL L27bT (antibody, name in Kabat numbering, V domains shown)
VH: B1 VH
VL: B1 VL with L29T, Y31H
notes: Dual-Ig
B29: H183/L072 VL K50A (antibody, name in Kabat numbering, V domains shown)
VH: B1 VH
VL: B1 VL with Y31H, K55A
notes: Dual-Ig
B30: H183/L072 VL L27bQ (antibody, name in Kabat numbering, V domains shown)
VH: B1 VH
VL: B1 VL with L29Q, Y31H
notes: Dual-Ig
B31: H183/L072 VL L27bV (antibody, name in Kabat numbering, V domains shown)
VH: B1 VH
VL: B1 VL with L29V, Y31H
notes: Dual-Ig
B32: H183/L072 VL L33A (antibody, name in Kabat numbering, V domains shown)
VH: B1 VH
VL: B1 VL with Y31H, L38A
notes: Dual-Ig
B33: H183/L072 VL L27bK (antibody, name in Kabat numbering, V domains shown)
VH: B1 VH
VL: B1 VL with L29K, Y31H
notes: Dual-Ig
B34: H183/L072 VL L27bI (antibody, name in Kabat numbering, V domains shown)
VH: B1 VH
VL: B1 VL with L29I, Y31H
notes: Dual-Ig
B35: H183/L072 VL L27bG (antibody, name in Kabat numbering, V domains shown)
VH: B1 VH
VL: B1 VL with L29G, Y31H
notes: Dual-Ig
B36: H183/L072 VL L27bE (antibody, name in Kabat numbering, V domains shown)
VH: B1 VH
VL: B1 VL with L29E, Y31H
notes: Dual-Ig
B37: H183/L072 VL K50T (antibody, name in Kabat numbering, V domains shown)
VH: B1 VH
VL: B1 VL with Y31H, K55T
notes: Dual-Ig
B38: H183/L072 VL H34L (antibody, name in Kabat numbering, V domains shown)
VH: B1 VH
VL: B1 VL with Y31H, H39L
notes: Dual-Ig
B39: H183/L072 VL L27bD (antibody, name in Kabat numbering, V domains shown)
VH: B1 VH
VL: B1 VL with L29D, Y31H
notes: Dual-Ig
B40: H183/L072 VL L33G (antibody, name in Kabat numbering, V domains shown)
VH: B1 VH
VL: B1 VL with Y31H, L38G
notes: Dual-Ig
B41: H183/L072 VL L27bW (antibody, name in Kabat numbering, V domains shown)
VH: B1 VH
VL: B1 VL with L29W, Y31H
notes: Dual-Ig
B42: H183/L072 VL L27bP (antibody, name in Kabat numbering, V domains shown)
VH: B1 VH
VL: B1 VL with L29P, Y31H
notes: Dual-Ig
B43: H183/L072 VL L27bH (antibody, name in Kabat numbering, V domains shown)
VH: B1 VH
VL: B1 VL with L29H, Y31H
notes: Dual-Ig
B44: H183/L072 VL K50G (antibody, name in Kabat numbering, V domains shown)
VH: B1 VH
VL: B1 VL with Y31H, K55G
notes: Dual-Ig

Target: T1, Human CD137 ECD (human)
T1 construct: entry includes C-terminal His-tag and biotin acceptor peptide; also called human CD137 extracellular domain; 4-1BB
Test: Biacore SPR, vs parent H183/L072

T1 sequence (chain, as listed by the source limits assumed): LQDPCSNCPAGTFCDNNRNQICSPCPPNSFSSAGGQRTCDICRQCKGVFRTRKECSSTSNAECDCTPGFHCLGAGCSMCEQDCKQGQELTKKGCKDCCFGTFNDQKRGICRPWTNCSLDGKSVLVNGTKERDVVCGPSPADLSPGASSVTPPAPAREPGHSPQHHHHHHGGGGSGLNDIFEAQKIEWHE

Row | Binder | fold change of affinity
1 | B1 | 0.5 fold
2 | B2 | 0 fold
3 | B3 | 0.1 fold
4 | B4 | 0.4 fold
5 | B5 | 0.3 fold
6 | B6 | 0.3 fold
7 | B7 | 0.1 fold
8 | B8 | 0 fold
9 | B9 | 0.4 fold
10 | B10 | 0 fold
11 | B11 | 0 fold
12 | B12 | 0 fold
13 | B13 | 0 fold
14 | B14 | 2.5 fold
15 | B15 | 2.9 fold
16 | B16 | 0.3 fold
17 | B17 | 0 fold
18 | B18 | 0.2 fold
19 | B19 | 0.3 fold
20 | B20 | 0.1 fold
21 | B21 | 0 fold
22 | B22 | 1 fold

Row | Binder | fold change of affinity
23 | B23 | 0 fold
24 | B24 | 0.4 fold
25 | B25 | 1.7 fold
26 | B26 | 0 fold
27 | B27 | 0.9 fold
28 | B28 | 0.4 fold
29 | B29 | 0.1 fold
30 | B30 | 0.2 fold
31 | B31 | 1.1 fold
32 | B32 | 0.9 fold
33 | B33 | 0.3 fold
34 | B34 | 1.1 fold
35 | B35 | 0.1 fold
36 | B36 | 0.2 fold
37 | B37 | 0.2 fold
38 | B38 | 0.1 fold
39 | B39 | 0.2 fold
40 | B40 | 0.1 fold
41 | B41 | 0.3 fold
42 | B42 | 0.8 fold
43 | B43 | 0.3 fold
44 | B44 | 0 fold
